Assay results from the nanobody polyreactivity screen of Harvey et al. (2022).

Test: yeast display, Sf9 membrane polyspecificity reagent, FACS + sequencing; frameworks hold sequencing errors
In short: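 A synthetic nanobody library was expressed on Saccharomyces cerevisiae BJ5465 by galactose induction for 36–48 hours. The library was stained for 1 hour at 4 °C with 10% biotinylated, detergent-solubilized Sf9 membrane reagent and enriched with streptavidin microbeads before FACS. Low and high (top ~1%) gates were set on anti-HA fluorescence for expression and streptavidin fluorescence for reagent binding, and each polyreactivity label reflects the gate of origin.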

Sequence | polyreactivity (PSR sort gate)
QVQLVESGGGLVQAGGSLRLSCAASGRIFKYYAMGWYRQAPGKERELVAAITSSGVSTYADSVKGRFTISRDNAKNTVYLQMNSLKPEDTAVSYCNAADERSQGWVGCDHWGQCTQVTVSS | low polyreactivity
QVQLVESGGGLVQAGGSLRLSCAASGRIFKYYAMGWYRQAPGKERELVATITSGGRTNYADSVKGRFTISRDNAKNTVYLQMNSLKPEDTAVYYCARRPPASSRYDYWGQGTQVTVSS | high polyreactivity
QVQLVESGGGLVQAGGSLRLSCAASGRIFKYYAMGWYRQAPGKNRELVATISVSGANTYYADSVKGRFTISRDNAKNPVYLQMNSLKREDTAVYFCAAGYAGVSHITRTSRKSHYGYWGQGTQVTVSS | high polyreactivity
QVQLVESGGGLVQAGGSLRLSCAASGRIFKYYARGGYRQAPGKERELVAAISGSGGSTFYADSVKGRFTISRDNAKNTVYLQMNSLKPEDTAVYYCNADEVVWGYNYWGQGTQVTVSS | low polyreactivity
QVQLVESGGGLVQAGGSLRLSCAASGRIFKYYSMGWYRQAPWKERELVAAITRGGSTNYADSVKGRFTISRDNEKNTVYLQMNSLKPEDTAVYYCAVDTVRNHRMDYWGQGTQVTVSS | low polyreactivity
QVQLVESGGGLVQAGGSLRLSCAASGRIFLDYAMGWYRQAPGKERELVAAINSGGRTNYADSVKGRFTISRDNAKNTVYLQMNSLKPEDTAVYYCAAGYWPRWFWPYEYWGQGTQVTVSS | low polyreactivity
QVQLVESGGGLVQAGGSLRLSCAASGRIFLDYVMGWYRQAPGKERELVAAISWSGDRTDYADSVKGRFTISRDNAKNTVYLQMNSLKPEDTAVYYCASTWYFAYSDDYKFDYWGQGTQVTVSS | low polyreactivity
QVQLVESGGGLVQAGGSLRLSCAASGRIFLFYAMGWYRQGPGKERALVAAINWSGTRTYYADSVKGRFTISRDNAKNSVYLHMNSLKPEDTAVYDCNVDTSVYDFSEYDYWGQGTQVTVSS | high polyreactivity
QVQLVESGGGLVQAGGSLRLSCAASGRIFLFYTMGWYRQAPGKERELVAGITFSGGSTYYADSVKGRFTISRDNAKNTVYLQMNSLKPEDTAVYYCNARRWWQSYDYWGQGTQVTVSS | high polyreactivity
QVQLVESGGGLVQAGGSLRLSCAASGRIFLGNAMGWYRPAPGKERELVAAITNGGGSTYYADSVNGRFTISRDNAKNTVYLQMNSLKPEDTAVYYCAAQRWTVKYNYWGQGTQVTVSS | high polyreactivity
QVQLVESGGGLVQAGGSLRLSCAASGRIFLGNAMGWYRQAPGKERELVDAITYSGRSTYYADSVKGRFTISRDNAKNTVYLQMNSLKPEDTAVYYCAARQYWTTDLPFQRYYYWGQGTHVTVSS | low polyreactivity
QVQLVESGGGLVQAGGSLRLSCAASGRIFLGYAMGWYRQAPGQERELVASITSSGGSTYYADSVKGRFTISRDNAKNTVYLLMNSLKPEDTAVYYCAKVGHYRWGWLSRAASDYWGQGTQVTVSS | high polyreactivity
QVQLVESGGGLVQAGGSLRLSCAASGRIFLGYTMGWYRQAPGKERELVAAISKSGDSTYYADSVKGRFTISRDNAKNTVYLQMNSLKPEDTAVYYCAKDYGGRLYYYWGQGTQVTVSS | high polyreactivity
QVQLVESGGGLVQAGGSLRLSCAASGRIFLIYAMGWYRQAPGKERELVAAISWSGGSTYYADSVKGRFTISRDNAKNTVYLQMNSLKPEDTAVYYCNADDVNYGYYSWYDYWGQGTQVTVSS | low polyreactivity
QVQLVESGGGLVQAGGSLRLSCAASGRIFLLNAMGWYRQAPGKERELVADISFNGGSKYYADSVKGRFTISRDNAKNTVYLQMNSLKPEDTAVYYCNADAHNLWFRYYYWGQGTQVTVSS | low polyreactivity
QVQLVESGGGLVQAGGSLRLSCAASGRIFLPYAMGWYGQAPGKERELFASISGSGGRTYYADSVKGRFTISRDHANNTVYLQMISQKPEDTAVYYCANRPVYAGYRFNYWGQGTQLTVSS | high polyreactivity
QVQLVESGGGLVQAGGSLRLSCAASGRIFLQYDMGWYRQAPGKERELVAGISSRGGSMYYADSVKGRFTISRDNAKNTVYLQMNSLKPEDTAVYYGAAQTKRIRYVYKHYYWGQGTQVTVSS | high polyreactivity
QVQLVESGGGLVQAGGSLRLSCAASGRIFLRNAMGWYRQAPGKERELVANITSRGGSTYYADSVKGRFTISRDNAKNTVYLQMNSLKPEDTAVYYCAADPRRYRGFGYVYGGFYYWGQGTQVTVSS | low polyreactivity
QVQLVESGGGLVQAGGSLRLSCAASGRIFLRNTMGWYRQAPGTERELVAAITGRGGSTYYADSVKGRFTISRDNAKNTVYLQMNSLIPEDTAVYYCAARSPGYSPPGPVRLSDYWGQGTQVTVSS | high polyreactivity
QVQLVESGGGLVQAGGSLRLSCAASGRIFLRYAMGWYRQAPGKERELVAVITWSGGSTYYADSVKGRFTISRDNAKNTVYLQMNSLKPEDTAVYYCAADWYPTGFYYWGQGTQVTVSS | low polyreactivity
QVQLVESGGGLVQAGGSLRLSCAASGRIFLTYAMGWYRQAPGKERELVAAISGRGGSTYYADSVNGRFTISRDYAKNTVYLQMNSLKPEDTAVYYCAAAKWVIQTGNYYYWGQGTQVTVSS | low polyreactivity
QVQLVESGGGLVQAGGSLRLSCAASGRIFLTYAMGWYRQAPGKERELVAAISTSGTRTYYADSVKGRFTISRDNAKNTVYLQMNSLKPEDTAVYYCAREKYNYRTYEYWGQGTQVTVSS | high polyreactivity

Sequence | polyreactivity (PSR sort gate)
QVQLVESGGGLVQAGGSLRLSCAASGRIFLTYAMGWYRQAPGKERELVAAITDNGGDTYYADSVKGRFTISRDNAKNTVYLQMNSLKPEDTAVYYCAKTTLSVAGLDFDYWGQGTQVTVSS | low polyreactivity
QVQLVESGGGLVQAGGSLRLSCAASGRIFLVNAMGWYRQAPGKEREFVAAITDNTGSTYYADSVKGRFTISRDNAKNTVYLQMNSLKPEDTAVYYCAKQRGNKRIGYDSWGQGTQVTVSS | low polyreactivity
QVQLVESGGGLVQAGGSLRLSCAASGRIFLVYAMGWYRQAPGKERELVATIRSGGRTNYADSVKGRFTISRDNAKNAVYLQMNSLKPEDTAVYYCNAPPYTSSDQDPAGDYEYWGQGTQVTVSS | high polyreactivity
QVQLVESGGGLVQAGGSLRLSCAASGRIFLVYGMGWSRQAPGKERELVASITDRGGSTYYADSVKGRFTISRDNAKNTVYLQMYSLKPEDTAVYYCAADGAFYASTEMDYWGQGTQVTVSS | low polyreactivity
QVQLVESGGGLVQAGGSLRLSCAASGRIFLWNAMGWYRQAPGKERELVAGIRWSTGSTYYADSVKGRFTISRDNAKNTVYLQKNSLKREDTAVYYCNARSFATGSKVPARGYWGQGTQVTVSS | high polyreactivity
QVQLVESGGGLVQAGGSLRLSCAASGRIFLYNDMGWYRQAPGKERELVATITWNVTSTYYADSVKGRFTISRDNAKYTVYLQLNSLKPEDTAVYYCARGDHVGSAGYDYWGQGTQVTVSS | low polyreactivity
QVQLVESGGGLVQAGGSLRLSCAASGRIFLYNGMGWYRQAPGKERELVAGITTGGNTNYADSVKGRFTISRDNAKNTVYLQMNSLKPEDTAVYYCAAEVIVYGWSPDYDYWGQGTQVTVSS | low polyreactivity
QVQLVESGGGLVQAGGSLRLSCAASGRIFLYTAMGWYRQAPGKERELVAAIDGGGTTYADSVKGRFTISRDNAKNTVYLQMNSLKPEDTAVYYCAGDWYYQYSIYRYGYWGQGTQVTVSS | low polyreactivity
QVQLVESGGGLVQAGGSLRLSCAASGRIFLYYAMGWYRQAPGKERELVAAITRSGGTTYYADSVKGRFTISRDNAKNTVYLQMNSLKPEDTAVYYCAALGQYSRADYEYWGQGTQVTVSS | high polyreactivity
QVQLVESGGGLVQAGGSLRLSCAASGRIFLYYAMGWYRQAPGKERELVAGISTGGSTNYADSVKGRFTISRDNAKNTVYLQMNSLKPEDTAVYYCAVVDVEEHVGHWGQGTQVTVSS | low polyreactivity
QVQLVESGGGLVQAGGSLRLSCAASGRIFMPYAMGWYRQARGKERELFAAITSTGGSTYYADSVKGRFTISRDNAKNTVYIQMNSQKPEDTAVYYCNARRGYQPHRRDYWGQGTQVTLSS | low polyreactivity
QVQLVESGGGLVQAGGSLRLSCAASGRIFNANAMGWYRPAPGKESELVAAISSSGGSTYYSDSVKGRFTISRDNAKNTVYLHMNSLKPEDTAVYYCKDEWGWRYSSDFDYWGQGTQVTVSS | low polyreactivity
QVQLVESGGGLVQAGGSLRLSCAASGRIFNAYAMGWYRQAPGKERELVATITGSGGRTHYADSVKGRFTISRDNAKNTVYLQMNSLKPEDTAVYYCAATAQYYHYHLAKYDYWGQGTQVTVSS | low polyreactivity
QVQLVESGGGLVQAGGSLRLSCAASGRIFNHYAMGWYRQAPGKERELVASITSGAGTNYADSVKGRFTISRDNAKNTVYLQMNSLKPEDTAVYYCNADLYDYYYSDGDYWGQGTQVTVSS | high polyreactivity
QVQLVESGGGLVQAGGSLRLSCAASGRIFNLYVMGWYRQAPGKERELVATISSGGSTNYADSVKGRFTISRDNAKNTVYLQMNSLKPEDTAVYYCAAREWRSFDYWGQGTQVTVSS | low polyreactivity
QVQLVESGGGLVQAGGSLRLSCAASGRIFNLYVMGWYRQAPGKERELVATISSGGSTNYADSVKGRFTISRDYAKNTVYLQMNSLKPEDTAVNYCAKPYIVYYTMDYWGQGTQVTVSS | low polyreactivity
QVQLVESGGGLVQAGGSLRLSCAASGRIFNRNAMGWYRQAPGKEREFVAAISRSGGTTYYADSVKGRFTFSRDNAKNTVYLQINSLKPEDTAFYYCNAVRYQTEVDYWGQGTQVTVSS | high polyreactivity
QVQLVESGGGLVQAGGSLRLSCAASGRIFNRNAMGWYRQAPGKERELVAAITGSGGITYYADSVKGRFTISRDNAKNTVYLQMNSLKPEDTAVYYCAARAKFLSLPTYDYWGQGTQVTVSS | high polyreactivity
QVQLVESGGGLVQAGGSLRLSCAASGRIFNRNAMGWYRQPPGKERELVAAISWSGTRTYYADSVKGRFTISRDNAKNTVYLQMNSLKPEDTAVYYCAAGASLYSYYGFLPYDYWGQGTQVTVSS | high polyreactivity
QVQLVESGGGLVQAGGSLRLSCAASGRIFNRYAMGWYRQAPGKERELVAAITSGGSTYYADSVKGRFTISRDNAKNTVYLPMNSLKREDTAFYYCAALPRSNSYGYCGQGTQVTVSS | high polyreactivity
QVQLVESGGGLVQAGGSLRLSCAASGRIFNTYAMGWYRQAPAKERELVAAITSSGGSTYYADSVKGRFTISRDNAKNTVYLQMNSLKPEDTAVYYCNAGSLHRRYYYEGDYWGQGTQVTVSS | high polyreactivity
